Source: US20220153864A1

Experiments:
[1] = biological target: 32 different targets including GPC3, GPC5, and other TNF receptor proteins; assay: off-target ELISA on 32 coated targets, binder at 100 nM, signals normalized to control antibody SEQ ID NOs: 106 and 107 and summed
[2] = biological target: 32 different targets including GPC3, GPC5, and other TNF receptor proteins; assay: off-target ELISA on 32 coated targets, sum of the ratios at 100 nM and 10 nM
[3] = biological target: 32 different targets including GPC3, GPC5, and other TNF receptor proteins; assay: off-target ELISA on 32 coated targets, binder at 10 nM, signals normalized to control antibody SEQ ID NOs: 106 and 107 and summed

- cumulative binding ratio [1]: 81
- sum of cumulative binding ratios [2]: 129
- cumulative binding ratio [3]: 48
B1: GPC3 antibody as included in the fusion protein (SEQ ID NOs: 81 and 82) (antibody, human IgG4 S228P, kappa, F234A L235A, V domains shown)
VH: QVQLVQSGAEVKKPGASVKVSCKASGYTFTDYEMHWVRQAPGQGLEWMGALDPKTGDTAYSQKFKGRVTLTADKSTSTAYMELSSLTSEDTAVYYCTRFYSYTYWGQGTLVTLVS
VL: DVVMTQSPLSLPVTPGEPASISCRSSQSLVHSNRNTYLHWYLQKPGQSPQLLIYKVSNRFSGVPDRFSGSGSGTDFTLKISRVEAEDVGVYYCSQNTHVPPTFGQGTKLEIKR
